Measured values published in the DeepSol protein solubility set.

Assay: soluble on expression in E. coli; label from the status in PepcDB or PDB records

Row | Sequence | soluble on expression in E. coli
1 | MSLIRANAGDWKKYTFELTPDKTDENARLAIYLEEKGRIQVDMVTLMNGADRQFCGLPLRNDIGQAMVDQGLRFLRYGGTMVNAPEYRFKKMIGDRAERPPYKGHWYTYSTNGFGIEDFLHFCEKAGFMPAYAVNVEESAQDMADMIEYLNGSVDTKWGKKRAENGHPEPYGLKYLEIGNEEVIWGDIEADYQHYIDRFNDIYEAVHAKDPEVQFIHSAWWRPESPNMEKVFKALDGKAAYWDYHPWTDDLGSHVNIDRELTDMKAKFLKWNPKTSMRCAIFEENGNLHNVQRAIVHATVQNVVRRHGDFILTTCAANALQPYLQNDNGWDQGQIFFTSGQVWGMPTFYAQQMSSAHHHPLRLWSETVGELDMTATTNEARDEVILHVVNTSSEVRETQVSLSGFIPKGNMEIYTLSGELNDENLPDTPTWILPKATWKQAPGSDFTYSFPGYSYTIVVLKEGHHHHHH | not soluble
2 | MGSDKIHHHHHHMNKEHICFDFDSNPAFQTIDYEVAARSFVPGYESIFNMAVALLDASVPEPAHLLIVAAGGGMELITFGQARSHWLFTGVDPSAKMLAIAQEKVAKQGLTNRVKLHQGLTHELPVTTLYDAATCILAMHFLPDDGAKLLLLQSISQRLKPGAKLILVDLCEEKGSERFNDFLKAYKYHARNLGMSPEIVEETASKVVHIHCISEERTIELLQEANFSKITRFFTALWFRGWIATKNT | not soluble
3 | MGSDKIHHHHHHMSSKRLVIVGGGITGLAAAYYAERAFPDLNITLLEAGERLGGKVATYREDGFTIERGPDSYVARKHILTDLIEAIGLGEKLVRNNTSQAFILDTGGLHPIPKGAVMGIPTDLDLFRQTTLLTEEEKQEVADLLLHPSDSLRIPEQDIPLGEYLRPRLGDALVEKLIEPLLSGIYAGNIDQMSTFATYPQFVANEQKAGSLFEGMRLMRPLDQLPQTPQTTIKATGQFLSLETGLESLIERLEEVLERSEIRLETPLLAISREDGRYRLKTDHGPEYADYVLLTIPHPQVVQLLPDAHLPELEQLTTHSTATVTMIFDQQQSLPIEGTGFVVNRRAPYSITACTAIDQKWNHSAPDHTVLRAFVGRPGNDHLVHESDEVLQQAVLQDLEKICGRTLEPKQVIISRLMDGLPAYTVGHADRIQRVREEVLAQYPGIYLAGLAYDGVGLPDCVASAKTMIESIELEQSHTDESVNET | not soluble
4 | RKEEVLFGSFRLFTVTPVRYIKEIVTIGFPASIQNLIYASISMVLTRLVTGWGDTAVAIQRVGGQVESVSWMVGEGFAAAVNSFTGQNFGAGLFDRVKKGFSAAVK | not soluble
5 | MATAKKITIHDVALAAGVSVSTVSLVLSGKGRISTATGERVNAAIEELGFVRNRQASALRGGQSGVIGLIVRDLSAPFYAELTAGLTEALEAQGRMVFLLHGGKDGEQLAQRFSLLLNQGVDGVVIAGAAGSSDDLRRMAEEKAIPVIFASRASYLDDVDTVRPDNMQAAQLLTEHLIRNGHQRIAWLGGQSSSLTRAERVGGYCATLLKFGLPFHSDWVLECTSSQKQAAEAITALLRHNPTISAVVCYNETIAMGAWFGLLKAGRQSGESGVDRYFEQQVSLAAFTDATPTTLDDIPVTWASTPARELGITLADRMMQKITHEETHSRNLIIPARLIAAK | not soluble
6 | MGSDKIHHHHHHMGFYEEMIRRIAADADPAACVEEIRIYANWVLVKTGKWSISTYFHGMPGFTDPAGMGTWMGDWIGRPARAAALELLVSREILKRSVGMACLKSLLPDPPATIAGGAIELVEPAACRIPTCFIGYFKTAAAWREKGYPVTIVELFPRPGDIHWNEADEVLEKAELVLMTGLTVVNETLEAVIRRTPSARMRIIMGPTVPASPVLFDYGIDMLGITQIDDVELMSNYALLGGGSIANAPAGALRSLNMARDLRALQERISALAR | not soluble
7 | MLKQNTEREGRTIEQEDLKNLENEITEARENEDKYFSTFKGVRGQLIKECQEMKDEAFKIAYDGVMADSKHLENVKAGRLTEVQHEELAKEKGQEASEKALPKTPLGVAIMLKHYLRFIRVKPEAQGQKAPLYFFHPDHGVWLEDNEFLQDLISVIFPNATEKQAFDTLYKIARQSQLKEIQREYTVIGNQLYNYKTGQFEELTPDITVTRKIKTGYNKKAKEPTIKGWKPTAWLLELFDGDAELYNLAIQIIKASITGQSLQKIFWLFGEGGTGKGTFQQLLINLVGMDNVASLKITELAKSRFTTSILLGKSIVIGDDIQKDAVIKDTSDIFSLATGDIMTIEDKGKRPYSIRLNMTVVQSSNGLPRMNGDKSAIDRRFRILPFTKVFKGKPNKAIRNDYINRKEVLEYLLKLAIETPITDINPKASIEILEEHHKEMNPVIDFVSKFFTDELTSEFIPNSFVYHVWKGFLEYYDIKQIKSERGLHKEIKSNLPEGFEAGQKVIPVGRQLHTGFYPKEDLPLFASASYANGRASPEKRKKPKNERGYYNHWPTHKKQKKT | soluble
8 | MGSHHHHHHDITSLYKKAGSAAAVLEENLYFQGSFTMRRKVFEELVTATKILLNEGIMDTFGHISARDPEDPASFFLAQKLAPSLITVDDIQRFNLDGETSDNRPSYLERYIHSEIYKTRPDVQCVLHTHSPAVLPYCFVDTPLRPVTHMGAFIGESVPVYEIRDKHGDETDLFGGSPDVCADIAESLGSQTVVLMARHGVVNVGKSVREVVFRAFYLEQEAAALTAGLKIGNVKYLSPGEIKTAGKLVGAQIDRGWNHWSQRLRQAGLA | soluble
9 | MSLLPSQSPAIFTVSRLNQTVRLLLEHEMGQVWISGEISNFTQPASGHWYFTLKDDTAQVRCAMFRNSSRRVTFRPQHGQQVLVRANITLYEPRGDYQIIVESMQPAGEGLLQQKYEQLKAKLQAEGLFDQQYKKPLPSPAHCVGVITSKTGAALHDILHVLKRRDPSLPVIIYPAAVQGDDAPGQIVRAIELANQRNECDVLIVGRGGGSLEDLWSFNDERVARAIFTSRIPVVSAVGHETDVTIADFVADLRAPTPSAAAEVVSRNQQELLRQVQSTRQRLEMAMDYYLANRTRRFTQIHHRLQQQHPQLRLARQQTMLERLQKRMSFALENQLKRTGQQQQRLTQRLNQQNPQPKIHRAQTRIQQLEYRLAETLRAQLSATRERFGNAVTHLEAVSPLSTLARGYSVTTATDGNVLKKVKQVKAGEMLTTRLEDGWIESEVKNIQPVKKSRKKVHEGHHHHHH | not soluble
10 | MSLTLTEVAEFVGVSAMTVSRALRMPEKVNPELRDRIDAAVSQLGYVPNLQARNLASVHSDLILAVVPTFSSPGFLPVSEALQKVLTERGYTMMFMESGHDGQSEQKTFEKMLAYNPAAIIQFNIDTIESCTQLLANVDVPILEIGALNTHPVGMCIGVDYGKAVKQIVTHLADASLKNIALLCTPANNTMFRQLLSGWNTAMLALNRSPHRVVTTHLPSTIATGVNIFKDMMITWGDLDALICTSDEMACGCMMACHSAGIKVPNTVAIASLGGGVLSTVCSPALTTVEFPWHDIGVKAGKALLELLNDKPGEKFIEIPSVLKVRASTAEGHHHHHH | soluble
11 | MSLAESQLSKLDVNLQSLNPYTFSKTRCIVNLHISDDTKNRDPSTTNGSYSNSQLLSNGEHVCYHFSQDYCVLSIYPVTDAITGKTVVVHLPHETFNDHHTFTMAEEDGCIVMDLILKTGLFLTLRFSLEYLFNRNADINSSWYSLLKPYDFTVRLPDYLYKVNSALSIVYLNDGGLLGLQKTQTSGSDEYDLHPVLFNDNSYFQSFTRFFSHNDSGRENVVSSVSYGDYHLLTLTENCKLRIWDLRTNSVTAQLNLITDPQDKHRKYESIGPYLALLDSVLVVFLPFGNGAFRTFQLSVNNSGGLVLTPRGELIRTNLSTASIWSLVDTKLTKPFELNIETSYLQMVVLWKSNTSIKLQILNFETEALDKHSWVEASNKSLPDILDNDILGDNFEQSLLDLKAHYTPAIYEEAQRILSANGEGHHHHHH | not soluble
12 | MIKAIFTRQKNGQLSSVTLTGHAGSGKHGFDIVCASVSTLAINFVNSLEVLADCQALVDLNDVEGGYMAITIPPHDNKEEVQLLFESFLLGMTSLAKDSSKFVNTQVI | not soluble
13 | MGSDKIHHHHHHMTTVLPLDPARYTPHLLHSAERMWPETNCYVDLWIEVLCVLGLPPEAMLGFTLTQDFEGDQFTFFKVPLEDLEALYGIRVTELAIFDRAEAHVAQQISRGRLCLVEMDSYFMPDTAGVGYRQHHGKTTVGVNRLDLAGRSMDYFHNGGFFRLEAEDFDGIWQLAAPETAPFLPYTEFAKFPETRPDETHLRAVAKRLFAFHFARRPQGNPFAGFAEVFPAQVEAIAERPFGYFHTYAFNTLRQFGANFELLASHLKWLAADDRYTNEIAEALRISELAKTVQFQLARAVTRKKFDPLKAALDPAIDAWDRLMTGLADKMA | not soluble
14 | GMIDEKFLIESNELVESSKIVMVGTNGENGYPNIKAMMRLKHDGLKKFWLSTNTSTRMVERLKKNNKICLYFVDDNKFAGLMLVGTIEILHDRASKEMLWTDGCEIYYPLGIDDPDYTALCFTAEWGNYYRHLKNITFKIDEIYNY | soluble
15 | MGSDKIHHHHHHMMFLPEQISKLNELETLVFDFIIKSPEEVQQMTIRDLASQAHVSTSTIVRLCTKLGFEGWSDLKFYLKNQLKEKTPEEQHYDNMLEFNMFLRRMNTDNYQAKLNNAAQMIAKADYTVFLGLGTSGSLSEYATKYFVNTGLRSFVISDPFQAVQVQGMGNVVAVIMSVSGETEQVVNKELEFKAGGAKIISITNNEDCTVAKLADYQLSYNLVNEWSKQYPLGNLTTQLPVLAILEILAHKSIDYHLKK | not soluble
16 | MSLKINVAPENPQYRIVEIFESLQGEGWNTGMPAVFVRLGKCNLACGWCDTDYLTFGMMGLSDILGRLKTYAARNIIITGGEPTIQPHLDMLLDTLKAEGYFLCLETNGLNPAPPQIDYVATSPKACYAAKYENSCIETADEVRIVADGDVLAFCENMERKIRAHHYYLSPCEQDGAMNIYDTIRQIGILNSRPDASVHWQLSVQTHKWAGIEEGHHHHHH | soluble
17 | MAHHHHHHMPYQHIKVPEGGDKITVNKDFSLNVSDQPIIPYIEGDGTGFDITPVMIKVVDAAVEKAYGGKKKIHWMEIYAGEKATKVYGPDVWLPEETLQVLKEYVVSIKGPLTTPVGGGIRSLNVALRQELDLYVCLRPIQYFKGVPSPVREPEKTNMVIFRENSEDIYAGIEWAAESEQAKKVIKFLQEEMGVKKIRFPQTSGIGIKPVSKEGTERLVRKAIQYAIDNDRKSVTLVHKGNIMKFTEGAFRDAGYALAQKEFGAELIDGGPWMKFKNPKTGNEIVVKDSIADAFLQQILLRPAEYDVIATLNLNGDYISDALAAQVGGIGIAPGANLSDSVAMFEATHGTAPKYAGKDYVNPGSEILSAEMMLRHLGWTEAADVIISAMEKSIKQKRVTYDFARLMEGATQVSCSGFGQVLIENME | soluble
18 | MDDLVKSSQKALENQVLRDQVSSYEREIMLQNENMEALRSFRHDMKRHFAEISVLASTGEIEQIKNYVSAMENNLVESRRLVDSGNTALDTVLNYMLQRAVDKKIQLNVKVVVPSDLKLSAYDMNIIFGNLLENAIEAQKDVKNPSIDLEINYLMDSLVVEISNRCLQKVIFKGGLPITTKQSVREHGYGLKNVKKVLDKYISTLDFECSDERFTVKILMKI | not soluble
19 | MASSINGRKPSEIFKAQALLYKHIYAFIDSMSLKWAVEMNIPNIIQNHGKPISLSNLVSILQVPSSKIGNVRRLMRYLAHNGFFEIITKEEESYALTVASELLVRGSDLCLAPMVECVLDPTLSGSYHELKKWIYEEDLTLFGVTLGSGFWDFLDKNPEYNTSFNDAMASDSKLINLALRDCDFVFDGLESIVDVGGGTGTTAKIICETFPKLKCIVFDRPQVVENLSGSNNLTYVGGDMFTSIPNADAVLLKYILHNWTDKDCLRILKKCKEAVTNDGKRGKVTIIDMVIDKKKDENQVTQIKLLMDVNMACLNGKERNEEEWKKLFIEAGFQHYKISPLTGFLSLIEIYP | soluble
